# According to PMC10470895:
# Where “and” joins values, the source holds several entries; their conditions need not be identical. Equal values may be shown once.
# Columns and labels:
# [1] = target: Pyruvate kinase M2 (PKM2) of the X. laevis oocyte nucleus (X. laevis (endogenous in oocytes)); assay: native gel or EMSA; oocyte nuclear homogenate, native PAGE as in Sen et al. (2016), 2x loading buffer with 200 mM KCl, Western blotting with anti-PKM2; Precision Plus markers
# [2] = target: X. laevis oocyte GAPDH (glyceraldehyde 3-phosphate dehydrogenase, somatic form; GAPDH.s and GAPDH.l) (X. laevis (endogenous in oocytes)) (UniProt P51469); assay: native gel or EMSA; oocyte nuclear (up to 0.5 nuclei) and cytoplasmic (0.05 cytoplasm) homogenates in HR buffer on Invitrogen 4-16% NativePAGE Bis-Tris gel, Western blotting; compared with the bands of recombinant human GAPDH; second-dimension SDS-PAGE for cytoplasm
# [3] = target: recombinant human GAPDH (glyceraldehyde 3-phosphate dehydrogenase) (human) (UniProt P04406); assay: native gel or EMSA; purified recombinant human GAPDH (1 ug) on Invitrogen 4-16% NativePAGE Bis-Tris gel, Western blotting; bands confirmed as GAPDH by second-dimension SDS-PAGE (about 36 kDa)
# Chain of recombinant human GAPDH (glyceraldehyde 3-phosphate dehydrogenase), P04406 1-335 (enzyme; other documents disagree on this pair) (P04406 whole entry): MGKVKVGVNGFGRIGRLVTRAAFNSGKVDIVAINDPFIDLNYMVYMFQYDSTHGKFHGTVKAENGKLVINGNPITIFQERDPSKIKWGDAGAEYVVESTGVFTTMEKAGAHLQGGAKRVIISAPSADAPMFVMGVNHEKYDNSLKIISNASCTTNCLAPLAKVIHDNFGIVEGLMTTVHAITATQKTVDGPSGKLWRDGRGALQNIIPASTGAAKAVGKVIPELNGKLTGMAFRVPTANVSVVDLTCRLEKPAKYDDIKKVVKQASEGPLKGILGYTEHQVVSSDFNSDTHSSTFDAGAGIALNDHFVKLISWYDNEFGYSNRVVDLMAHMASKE
# Chain of X. laevis oocyte GAPDH (glyceraldehyde 3-phosphate dehydrogenase, somatic form; GAPDH.s and GAPDH.l) (P51469 whole entry): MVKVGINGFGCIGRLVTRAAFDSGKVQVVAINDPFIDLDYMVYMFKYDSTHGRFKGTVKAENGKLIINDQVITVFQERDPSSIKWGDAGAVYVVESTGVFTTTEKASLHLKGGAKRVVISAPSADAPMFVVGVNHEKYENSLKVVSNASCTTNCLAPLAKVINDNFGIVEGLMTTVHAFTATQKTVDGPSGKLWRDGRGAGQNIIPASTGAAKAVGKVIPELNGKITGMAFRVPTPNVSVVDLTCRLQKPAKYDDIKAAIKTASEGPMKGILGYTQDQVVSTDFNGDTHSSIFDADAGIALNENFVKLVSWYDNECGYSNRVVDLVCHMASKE
substance,measurement,setting,value
Pyruvate kinase M2 (PKM2) of the X. laevis oocyte nucleus (enzyme),stoichiometry N,[1],4
"X. laevis oocyte GAPDH (glyceraldehyde 3-phosphate dehydrogenase, somatic form; GAPDH.s and GAPDH.l) (from UniProt P51469 1-333) (enzyme)",stoichiometry N,[2],4
"recombinant human GAPDH (glyceraldehyde 3-phosphate dehydrogenase), P04406 1-335 (enzyme; other documents disagree on this pair)",stoichiometry N,[3],2 and 4
